# Measurements reported in the nanobody polyreactivity screen of Harvey et al. (2022).
# Test: yeast display, Sf9 membrane polyspecificity reagent, FACS + sequencing; frameworks hold sequencing errors
# In short: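 In a synthetic yeast display library (Saccharomyces cerevisiae BJ5465), nanobody expression was induced with galactose for 36–48 hours. FACS gates were set low and high (top ~1%) using anti-HA fluorescence for expression and streptavidin fluorescence for binding of the Sf9 membrane reagent. Each polyreactivity label is drawn from the gate of origin.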
row,Sequence,polyreactivity (PSR sort gate)
1,QVQLVESGGGLVQAGGSLRLSCAASGSTFNRNAMGWYRQAPGKERELVAAISWRGDSTSYADSVKGRFTISRDNAKNTVYLQMNSLKPEDTAVYYCAAYRVILYYLYDYWGQGTQVTVSS,low polyreactivity
2,QVQLVESGGGLVQAGGSLRLSCAASGSTFNRNAMGWYRQAPGKERELVADISRGGRTYYSDSVKGRFTITRDNAKNTVYLQMNSLKPEDTAVFYCATVVSRGKQPFDMDYWGQGTQVTVSS,low polyreactivity
3,QVQLVESGGGLVQAGGSLRLSCAASGSTFNRNTMGWYRQAPGKERELLAAISRRGGSTYYADSVKGRFTISRDNAKNTVYLQMNSLKPEDTAVYYCAAGREYRVYKGAQEFDYWGQGTQVTVSS,high polyreactivity
4,QVQLVESGGGLVQAGGSLRLSCAASGSTFNRNTMGWYRQAPGKERELVAAITSSGGRTYYADSVKGRFTISRDNAKNTVYLQVNSLKPEDTAVYYCANVIRVLIAGRFDSWGQGTHVTVSS,high polyreactivity
5,QVQLVESGGGLVQAGGSLRLSCAASGSTFNRYAMGWYRQAPGKERELVAAISLSGGSTYYADSVKGRFTISRDNAKNTVYLQMNSLKPEDTAVYYCAADIFYYSSSYGYWGQGTQVTVSS,low polyreactivity
6,QVQLVESGGGLVQAGGSLRLSCAASGSTFNRYAMGWYRQAPGKERELVASISCSGGGSTYYADSVKGRFTISRDNAKNTVYLQMNSLKPEDTAVYYCAVSRDSYGGKGSVLYDYWGQGTQVTVSS,low polyreactivity
7,QVQLVESGGGLVQAGGSLRLSCAASGSTFNSYAMGWYRQAPGKEWELVAAITSSVGSTYYADSVKGRFTISRDNAKNTVYLQMNSLKPEDTAVYYCAADYFSFWYFSGYDYWGQGTQVTVSS,low polyreactivity
8,QVQLVESGGGLVQAGGSLRLSCAASGSTFNSYVMGWYRQAPGKERELVAAITSSGSTYYADSVKGRFTISRDNAKNTVYLQMNSLKPEDTAVYYCNAQDAWEWQGVWVGARDDYDYWGQGTQVTVSS,low polyreactivity
9,QVQLVESGGGLVQAGGSLRLSCAASGSTFNTYDMGWYRQAPGKERELVAAISFSDASTYYADSVKGRFTISRDNAKYTVYLQMNSLKPEDTAVYYCAADTRRITTVTTGEYGYWGQGTQVTVSS,low polyreactivity
10,QVQLVESGGGLVQAGGSLRLSCAASGSTFNVNAMGWYRQAPGKETEFVAAITYRGGRTYYADSVKGRFTISRDNEKNTVYLQMNSLKPEDTAVYYCAADGYRKRGFDYWGQGTQVTVSS,high polyreactivity
11,QVQLVESGGGLVQAGGSLRLSCAASGSTFNYNAMGWYRQAPGKERELVAAITGTGGDTYYADSVKGRITISRDNAKNTVYLQMNILKPEDTAVYYCDAEEDYWGQGTQVTLSS,low polyreactivity
12,QVQLVESGGGLVQAGGSLRLSCAASGSTFNYNAMGWYRQAPGKERELVATITTSGGSTYYADSVKGRFTISRDNAKNTVYLQMNSLKPEDTAVYYCAARYPWYRTIDRYDYWGQGTQVTVSS,low polyreactivity
13,QVQLVESGGGLVQAGGSLRLSCAASGSTFNYYAMGWYRPAPGKERELVAAISWSGGSTYYADSVKGRFTISRDNAKNTVYLQMNSLKPEDTAVYYCAAYPARPWARGDRRRIRFWGQGTQVTVSS,high polyreactivity
14,QVQLVESGGGLVQAGGSLRLSCAASGSTFNYYAMGWYRQAPGKERELVAAIDWSGGSTYYADSVKGRFTISRDNAKNTVYLQMNSLKPEDTAVYYCAARTYDYSYRSYDYWGQGTQVTVSS,low polyreactivity
15,QVQLVESGGGLVQAGGSLRLSCAASGSTFNYYTMGWYRQAPGKERELVAAISGRGSITYYADSVKGRFTISRDNAKNTVYLQMNSLKPEDTAVYYCNARYGRWQGSSGEHDYWGQGTQVTVSS,high polyreactivity
16,QVQLVESGGGLVQAGGSLRLSCAASGSTFPAYAMGWYRQAPGKERELVAVINLSGSTYYADSVKGRFTISRDNAKNTVYLQMNSLKPEDTAVYYCNARPYDYYRYGYWGQGTQVTVSS,low polyreactivity
17,QVQLVESGGGLVQAGGSLRLSCAASGSTFPDYAMGWYRQAPGKERELVAAISYRGGSTNYADSVKGRFTISRDNAKNTVYLQMNSLKPEDTAVYYCATDDYYPQPFYYEYDYWGQGSQVTVSS,low polyreactivity
18,QVQLVESGGGLVQAGGSLRLSCAASGSTFPGNAMGWYRQAPGKERELVASISGGGDSTYYADSVKGRFTISRDNAKNTVYLQMNSLKPEDTAVYYCAADYRQEPGYTGYYYWGQGTQLTVSS,low polyreactivity
19,QVQLVESGGGLVQAGGSLRLSCAASGSTFPGNSMGWYRQAPGKEMELVAAIDTSGGSTYYADSVKWRFTISRDNAKNTVYLQINSLKPEDTAVYYCAADYLIEMDYWGQGTQVTVSS,low polyreactivity
20,QVQLVESGGGLVQAGGSLRLSCAASGSTFPGYAMGWYRQAPGKERELVAAINWRGDSTYYADSVKGRFTISRDNAKNTVYLQMNSLKPEDTAVYYCAAKYNHVTDEYDYWGQGTQVTVSS,high polyreactivity
21,QVQLVESGGGLVQAGGSLRLSCAASGSTFPGYAMGWYRQAPGKERELVATISSGGSTNYADSVKGRFTISRDNAKNTVYLQMNSLKPEDTAVYYCAKLRSAKFRYGYWGQGTQVTVSS,low polyreactivity
22,QVQLVESGGGLVQAGGSLRLSCAASGSTFPGYDMGWYRQAPGKERELVAAISWRDGRTFYADSVKGRFTISRDNAKNTVYLQMNSLKPEDSAVYYCAAAQRTAYLTYSYKYNYWGQCTQVTVSS,high polyreactivity

row,Sequence,polyreactivity (PSR sort gate)
1,QVQLVESGGGLVQAGGSLRLSCAASGSTFPIYAMGWYRQAPGKERELVASIRSGGSTYYADSVKGRFTMSRDNAKNTVYLQMNSLKPEDTAVYYCARRDYGVLNKGLGQEGDYWGQGTQVTVSS,low polyreactivity
2,QVQLVESGGGLVQAGGSLRLSCAASGSTFPKYAMGWYRQAPGKERELVASISVTTGSTYYADSVKGRFTISRDNAKNTVYLQMNSVKPEDTAVYYCAARRGWGDDYWGQGTQVTVSS,high polyreactivity
3,QVQLVESGGGLVQAGGSLRLSCAASGSTFPKYAMGWYRQAPGKERELVATISSGTRTYYADSVKGRFTISRDNAKNTVYLQMNSLKPEDTAVYYCAARYQPRKGAHYGYWGQGTQVTVSS,high polyreactivity
4,QVQLVESGGGLVQAGGSLRLSCAASGSTFPLNVMGWYRQAPGKERELVAAISSAGSTNYADSVKGRFTISRDNAKNTVYLQMNSLKPEDTAVYYCNADVRSTWYWLQYTPIYDYWGQGTQVTVSS,low polyreactivity
5,QVQLVESGGGLVQAGGSLRLSCAASGSTFPLYAMGWYRQAPGKERELVAAISSSGGSTYYADSVKGRFTISRDNAKNTVYLQMNNLKPEDTAVYYCAAAPTSYSGYGYWGQGTQVTVSS,low polyreactivity
6,QVQLVESGGGLVQAGGSLRLSCAASGSTFPNYPMGWNRQSPGKERELVAAITRSGRSTYYADSVKGRFTISRDNAKNTVYLQMNSLKPEDTGVYYCNAQHLARMDYWGQGTQVTVSS,high polyreactivity
7,QVQLVESGGGLVQAGGSLRLSCAASGSTFPPNAMGWYRQSPGKERELVAVISYSDGSTYYADSVKGRFTISRDNAKNTVYLQMNSLKPEDTAVYYCAAYCGYGGVSMYYWGQGTQVTVSS,low polyreactivity
8,QVQLVESGGGLVQAGGSLRLSCAASGSTFPQNAMGWYRQAPGKERELVAAISRSGGRTYYADSVKGRFTISRDNAKNTVYLQMNILKPEDTAVYYCNAGFYQKYDYWGQGTQVTVSS,high polyreactivity
9,QVQLVESGGGLVQAGGSLRLSCAASGSTFPQYAMGRYRQAPGKERELVAAISRSGGSTYYADSVKGRFTISRDNAKNTVYLQMNSLKPEDTAVYYCNVKSGFWFYPTMDYWGQGTQVTVSS,high polyreactivity
10,QVQLVESGGGLVQAGGSLRLSCAASGSTFPRNAMGWYRQAAGKERELVAAISGRGVRTYYADSVKGRFTISRDNAKNTVYLQMNSLKPEDTAVHYCAAERQPYRTSSYNYWGQGTQVTVSS,high polyreactivity
11,QVQLVESGGGLVQAGGSLRLSCAASGSTFPRNAMGWYRQAPGKDRELVAAISGSGGTTYYADSVKGRFTISRDNAKNTVYLQMNSLKPEDTAVYYCAARTSWAYPGGNYWGHGTQVTVSS,low polyreactivity
12,QVQLVESGGGLVQAGGSLRLSCAASGSTFPRNAMGWYRQAPGKERELVAAISGRGVRTYYADSVKGRFTISRDNAKNTVHLQMNSLKPEDTAVYYCAASRGKGVGLAYDYWGQGTQVTVSS,high polyreactivity
13,QVQLVESGGGLVQAGGSLRLSCAASGSTFPRNAMGWYRQAPGKERELVAAISRSGGSTYYADSVKGRFTISRDNAKNTVYLQINSLKPEDTAVYYCAASYYGLPRYRYEYWGQGTQVTVSS,high polyreactivity
14,QVQLVESGGGLVQAGGSLRLSCAASGSTFPRNAMGWYRQAPGKERELVAAISYSGGRTYYADSVKGRLRISRDNAKNTVYLQMNSLKPDDTAVYYCAASPGVGDSRYYYWGQGTQVTVSS,high polyreactivity
15,QVQLVESGGGLVQAGGSLRLSCAASGSTFPRNAMGWYRQAPGKERELVAGISRGSSTNYADSVKGRFTISRDNAKNTVYLQMNSLKPEDTAVYYCAAALSVTARLDYWGQGTQVTVSS,low polyreactivity
16,QVQLVESGGGLVQAGGSLRLSCAASGSTFPRYAMGWYRQAPGKARELVAAINSSGSSTYYADSVKGRFTISRDNAKNTVYLQMNSLKPEDTAVYYCAAKARYRDYYYWGQGTQVTVSS,high polyreactivity
17,QVQLVESGGGLVQAGGSLRLSCAASGSTFPRYAMGWYRQAPGKERELVAAISRSGTSTYYADSVKGRFTISRDNAKNTVYLQMNSLKPEDTAVYYCAAEYHPRVLYPNWYDYWGQGTQVTVSS,low polyreactivity
18,QVQLVESGGGLVQAGGSLRLSCAASGSTFPRYAMGWYRQAPGKERELVAAISRSGTTTYYADSVKGRFTISRDNAKNTVYLQMNSLKPEDTAVYYCAKRHYARYDYWGQGTQVTVSS,high polyreactivity
19,QVQLVESGGGLVQAGGSLRLSCAASGSTFPRYAMGWYRQAPGKERELVAAITYSGGRTYYADSVKGRFTISRDNAKNTVYLQMNSLKPEDTAVYYCAARYGPYRFNPMGYWGQGTQVTVSS,high polyreactivity
20,QVQLVESGGGLVQAGGSLRLSCAASGSTFPRYAMGWYRQAPGKERELVASITSDGGSTYYADSVKGRFTISRDNAKNTVYLQMNSLKPEDTAVYYCNKVPYRGYRRYGYWGQGTQVTVSS,high polyreactivity
21,QVQLVESGGGLVQAGGSLRLSCAASGSTFPSNAMGWYRQAPGKERELVAALSRGGTTNYADSVKGRFTISRDNAKNTVYLQMNCLKPEDTAVYYCAKVYKLYWYKAYRRDYWGQGTQVTVSS,high polyreactivity
